Source: IntAct's records for PubMed 31515488

B1: Retinoic acid receptor beta (Homo sapiens), P10826-2 (parent)
chain: MFDCMDVLSVSPGQILDFYTASPSSCMLQEKALKACFSGLTQTEWQHRHTAQSIETQSTSSEELVPSPPSPLPPPRVYKPCFVCQDKSSGYHYGVSACEGCKGFFRRSIQKNMIYTCHRDKNCVINKVTRNRCQYCRLQKCFEVGMSKESVRNDRNKKKKETSKQECTESYEMTAELDDLTEKIRKAHQETFPSLCQLGKYTTNSSADHRVRLDLGLWDKFSELATKCIIKIVEFAKRLPGFTGLTIADQITLLKAACLDILILRICTRYTPEQDTMTFSDGLTLNRTQMHNAGFGPLTDLVFTFANQLLPLEMDDTETGLLSAICLICGDRQDLEEPTKVDKLQEPLLEALKIYIRKRRPSKPHMFPKILMKITDLRSISAKGAERVITLKMEIPGSMPPLIQEMLENSEGHEPLTPSSSGNTAEHSPSISPSSVENSGVSQSPLVQ
partner: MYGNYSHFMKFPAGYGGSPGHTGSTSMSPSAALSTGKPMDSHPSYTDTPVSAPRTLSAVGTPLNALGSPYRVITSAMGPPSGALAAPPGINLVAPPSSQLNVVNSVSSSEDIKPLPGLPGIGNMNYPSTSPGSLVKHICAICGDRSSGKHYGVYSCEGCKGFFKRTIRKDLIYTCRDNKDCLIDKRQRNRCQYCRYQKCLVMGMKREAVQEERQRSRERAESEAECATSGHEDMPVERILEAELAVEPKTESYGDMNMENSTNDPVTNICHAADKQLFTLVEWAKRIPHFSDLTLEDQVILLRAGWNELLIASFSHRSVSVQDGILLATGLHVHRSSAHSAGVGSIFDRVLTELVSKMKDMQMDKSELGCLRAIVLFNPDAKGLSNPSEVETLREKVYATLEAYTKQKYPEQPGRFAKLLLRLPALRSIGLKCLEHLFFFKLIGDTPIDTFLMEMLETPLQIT
B2: Protein LDOC1 (Homo sapiens), O95751 (parent)
chain: MVDELVLLLHALLMRHRALSIENSQLMEQLRLLVCERASLLRQVRPPSCPVPFPETFNGESSRLPEFIVQTASYMLVNENRFCNDAMKVAFLISLLTGEAEEWVVPYIEMDSPILGDYRAFLDEMKQCFGWDDDEDDDDEEEEDDY
partner: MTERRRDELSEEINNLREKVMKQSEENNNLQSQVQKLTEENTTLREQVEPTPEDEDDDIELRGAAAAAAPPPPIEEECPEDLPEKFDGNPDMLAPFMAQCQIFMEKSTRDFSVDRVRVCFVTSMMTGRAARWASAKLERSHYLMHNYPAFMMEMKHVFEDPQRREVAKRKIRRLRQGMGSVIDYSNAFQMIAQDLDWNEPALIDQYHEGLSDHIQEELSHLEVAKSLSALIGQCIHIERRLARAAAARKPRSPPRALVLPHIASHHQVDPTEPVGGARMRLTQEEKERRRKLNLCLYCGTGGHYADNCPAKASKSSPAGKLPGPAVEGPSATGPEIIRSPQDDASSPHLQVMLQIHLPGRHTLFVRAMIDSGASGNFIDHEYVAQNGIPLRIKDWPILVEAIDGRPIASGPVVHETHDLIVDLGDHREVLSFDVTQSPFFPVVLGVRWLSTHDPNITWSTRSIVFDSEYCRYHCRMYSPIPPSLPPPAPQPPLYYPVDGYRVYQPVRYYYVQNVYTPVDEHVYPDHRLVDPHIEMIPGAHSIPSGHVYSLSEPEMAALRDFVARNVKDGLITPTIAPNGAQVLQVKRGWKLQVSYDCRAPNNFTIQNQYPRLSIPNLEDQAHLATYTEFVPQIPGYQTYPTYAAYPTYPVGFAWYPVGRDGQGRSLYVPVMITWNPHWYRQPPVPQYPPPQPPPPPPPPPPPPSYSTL
B3: Methylthioribulose-1-phosphate dehydratase (Homo sapiens), Q96GX9 (parent)
chain: MSGCDAREGDCCSRRCGAQDKEHPRYLIPELCKQFYHLGWVTGTGGGISLKHGDEIYIAPSGVQKERIQPEDMFVCDINEKDISGPSPSKKLKKSQCTPLFMNAYTMRGAGAVIHTHSKAAVMATLLFPGREFKITHQEMIKGIKKCTSGGYYRYDDMLVVPIIENTPEEKDLKDRMAHAMNEYPDSCAVLVRRHGVYVWGETWEKAKTMCECYDYLFDIAVSMKKVGLDPSQLPVGENGIV
B4: Sperm-associated microtubule inner protein 4 (Homo sapiens), Q8N865 (parent)
chain: MEVIHGRPYCCRELEGADILSNTFYSNELHNPLQTVTRPTASEDRYQELRESLQQCRLPWGAEREYGGIIPISLPEDHRPKYEPPRVMGKGHQHYGFGGETWPRKLPVEQFYYLTQNKKSDVYGNDSLIPKPPNSTVGEICLPYPIEHPYHTHICRGAMFPTFTSPEDLYTGIKARTQQPFPPTVPTKAYDSTVLKTRGNPYRYELIDIPMDSKKKALTWPGQGVYYDFPRGVEKNKPVFYPKPPKTFAPNTSLNSWDPICSAKEANIQRNLERSHWLTSYTHDFTGLGPMDPLELDDYHEKMVAELTRKIGFDPEPQEKFHPVFKPPRPLEGRIARLIQNRRSLEAIVQQRPRSCPDCTPRVLCNFHTFVPSSKEMVALSDNIPAGVTHKNQDIEEKIIEEQSLLSTYELPSCYPTKDLTSIYDIKPFPKITDTKKTEDLYWRQQSLKTQPTPYCKPDHWIHYENLKSPLRDQYNMCPDPVSLSKPSVLQNKQDTEAFTLEHFLSKPEEELFLNMENNEETRPVLGWIPRAGVTKPQTNLLELKNSFSKTGAQKRFHKSILEDHKDLRDNEHSGMKHQFYGHNSYYFYN
partner: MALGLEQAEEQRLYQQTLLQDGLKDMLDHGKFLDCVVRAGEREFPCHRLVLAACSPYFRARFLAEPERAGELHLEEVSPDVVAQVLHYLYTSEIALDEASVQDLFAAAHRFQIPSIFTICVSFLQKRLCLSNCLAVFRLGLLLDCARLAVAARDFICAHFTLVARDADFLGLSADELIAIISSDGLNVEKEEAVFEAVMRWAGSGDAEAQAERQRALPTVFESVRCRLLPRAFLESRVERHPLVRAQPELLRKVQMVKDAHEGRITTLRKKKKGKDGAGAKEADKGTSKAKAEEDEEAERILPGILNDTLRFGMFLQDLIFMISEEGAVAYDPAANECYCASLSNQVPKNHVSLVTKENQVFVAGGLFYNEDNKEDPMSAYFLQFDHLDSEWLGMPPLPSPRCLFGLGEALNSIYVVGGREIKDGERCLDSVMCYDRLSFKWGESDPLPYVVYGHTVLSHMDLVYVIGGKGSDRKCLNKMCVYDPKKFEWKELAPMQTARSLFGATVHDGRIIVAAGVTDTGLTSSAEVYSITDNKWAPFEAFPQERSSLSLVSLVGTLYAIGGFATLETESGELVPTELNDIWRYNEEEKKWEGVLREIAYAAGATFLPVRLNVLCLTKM
B5: Dynein light chain 2, cytoplasmic (Homo sapiens), Q96FJ2 (parent)
chain: MSDRKAVIKNADMSEDMQQDAVDCATQAMEKYNIEKDIAAYIKKEFDKKYNPTWHCIVGRNFGSYVTHETKHFIYFYLGQVAILLFKSG
partner: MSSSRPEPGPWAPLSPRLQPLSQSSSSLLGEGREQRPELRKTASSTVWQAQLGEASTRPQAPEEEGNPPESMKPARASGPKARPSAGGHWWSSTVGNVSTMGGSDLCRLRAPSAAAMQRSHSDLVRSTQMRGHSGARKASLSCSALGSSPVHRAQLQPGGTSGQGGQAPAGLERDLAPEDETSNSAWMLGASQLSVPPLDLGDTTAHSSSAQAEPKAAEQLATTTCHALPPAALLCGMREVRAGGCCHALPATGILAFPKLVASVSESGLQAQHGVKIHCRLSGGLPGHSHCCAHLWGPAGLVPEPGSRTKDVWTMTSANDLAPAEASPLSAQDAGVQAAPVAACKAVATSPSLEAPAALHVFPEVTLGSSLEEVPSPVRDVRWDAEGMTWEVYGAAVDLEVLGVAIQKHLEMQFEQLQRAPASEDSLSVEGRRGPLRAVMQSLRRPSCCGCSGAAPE
B6: Keratin, type II cytoskeletal 6A (Homo sapiens), P02538 (parent)
chain: MASTSTTIRSHSSSRRGFSANSARLPGVSRSGFSSVSVSRSRGSGGLGGACGGAGFGSRSLYGLGGSKRISIGGGSCAISGGYGSRAGGSYGFGGAGSGFGFGGGAGIGFGLGGGAGLAGGFGGPGFPVCPPGGIQEVTVNQSLLTPLNLQIDPTIQRVRAEEREQIKTLNNKFASFIDKVRFLEQQNKVLETKWTLLQEQGTKTVRQNLEPLFEQYINNLRRQLDSIVGERGRLDSELRGMQDLVEDFKNKYEDEINKRTAAENEFVTLKKDVDAAYMNKVELQAKADTLTDEINFLRALYDAELSQMQTHISDTSVVLSMDNNRNLDLDSIIAEVKAQYEEIAQRSRAEAESWYQTKYEELQVTAGRHGDDLRNTKQEIAEINRMIQRLRSEIDHVKKQCANLQAAIADAEQRGEMALKDAKNKLEGLEDALQKAKQDLARLLKEYQELMNVKLALDVEIATYRKLLEGEECRLNGEGVGQVNISVVQSTVSSGYGGASGVGSGLGLGGGSSYSYGSGLGVGGGFSSSSGRAIGGGLSSVGGGSSTIKYTTTSSSSRKSYKH
partner: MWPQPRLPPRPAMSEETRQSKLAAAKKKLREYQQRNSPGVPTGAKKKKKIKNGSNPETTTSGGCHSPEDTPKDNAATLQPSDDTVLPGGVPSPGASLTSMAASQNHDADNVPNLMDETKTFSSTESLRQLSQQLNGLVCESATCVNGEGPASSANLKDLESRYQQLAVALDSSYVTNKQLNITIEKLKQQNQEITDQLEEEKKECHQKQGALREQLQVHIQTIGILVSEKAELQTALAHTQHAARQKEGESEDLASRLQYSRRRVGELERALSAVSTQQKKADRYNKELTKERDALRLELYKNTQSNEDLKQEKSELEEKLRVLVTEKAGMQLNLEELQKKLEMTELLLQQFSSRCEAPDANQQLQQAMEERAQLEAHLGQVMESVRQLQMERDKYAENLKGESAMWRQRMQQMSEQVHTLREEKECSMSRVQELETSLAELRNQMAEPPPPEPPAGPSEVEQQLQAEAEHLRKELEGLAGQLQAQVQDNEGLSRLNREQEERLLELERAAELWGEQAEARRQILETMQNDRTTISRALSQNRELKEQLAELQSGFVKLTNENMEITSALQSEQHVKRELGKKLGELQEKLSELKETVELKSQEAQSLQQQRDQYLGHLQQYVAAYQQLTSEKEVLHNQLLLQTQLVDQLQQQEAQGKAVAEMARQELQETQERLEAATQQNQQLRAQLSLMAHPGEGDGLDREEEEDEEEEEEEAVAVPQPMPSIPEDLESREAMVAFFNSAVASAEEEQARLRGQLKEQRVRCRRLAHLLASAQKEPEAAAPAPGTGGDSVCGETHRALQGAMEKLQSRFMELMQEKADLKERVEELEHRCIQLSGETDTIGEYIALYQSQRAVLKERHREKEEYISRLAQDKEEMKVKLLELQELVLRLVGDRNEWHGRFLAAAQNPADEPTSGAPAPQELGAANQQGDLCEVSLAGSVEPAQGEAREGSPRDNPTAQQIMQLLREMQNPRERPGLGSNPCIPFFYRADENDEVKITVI

Variants of: B1
Conditions: with rxrg_human RXRG

| Variant | effect of a mutation on the interaction |
| --- | --- |
| V83I | with no effect |

Variants of: B2
Conditions: with peg10_human PEG10, Q86TG7

| Variant | effect of a mutation on the interaction |
| --- | --- |
| L12H | with no effect |

Variants of: B3
Conditions: with ntaq1_human NTAQ1, Q96HA8

| Variant | effect of a mutation on the interaction |
| --- | --- |
| M181V | with no effect |
| G111A | with no effect |

Variants of: B4
Conditions: with klh40_human KLHL40, Q2TBA0

| Variant | effect of a mutation on the interaction |
| --- | --- |
| H300R | with no effect |
| A158T | with no effect |
| P238Q | with no effect |

Variants of: B5
Conditions: with grin2_human GPRIN2, O60269

| Variant | effect of a mutation on the interaction |
| --- | --- |
| N33S | with no effect |

Variants of: B6
Conditions: with goga2_human GOLGA2, Q08379

| Variant | effect of a mutation on the interaction |
| --- | --- |
| V523F | with no effect |
| R559G | with no effect |
| R415H | with no effect |
